Laboratory results published in the supplement of paper PMC9170038.

System: MS2 coat protein
Test: apparent KD of MS2 coat protein; designed switch direction (-1 OFF switch, 1 ON switch): 1; higher = weaker reporter binding
Procedure, shortened: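 SNAP-549-labelled MS2 coat protein was titrated, doubling from 0.7 or 1.5 nM to 3 µM, over designed RNA switches transcribed on Illumina chips by stalled E. coli RNA polymerase. Runs were done without input, with 200 uM small-molecule ligand, or with an oligonucleotide input. Apparent KD is the per-design median over clusters of curve-fitted normalised fluorescence.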

[1] = Eterna round: R95, input ligand: FMN 200 uM
[2] = Eterna round: R95, input ligand: microRNA oligo, concentration not stated
[3] = Eterna round: R95, input ligand: none
[4] = input ligand: microRNA oligo, concentration not stated

| Sequence | apparent KD of MS2 coat protein [1] [nM] | apparent KD of MS2 coat protein [2] [nM] | apparent KD of MS2 coat protein [3] [nM] | apparent KD of MS2 coat protein (input ligand: FMN 200 uM) [nM] | apparent KD of MS2 coat protein [4] [nM] | apparent KD of MS2 coat protein (input ligand: none) [nM] |
| --- | --- | --- | --- | --- | --- | --- |
| GUAAAACAUGAGGAUCACCCAUGUCAACAAAGUCGAGGAUAUGGGCAAAUAAAAUAAGAACCAGAAGGCGAAUAAU [salish99_SS1_r3_011] (puzzle: Same State 1) | 31.6 | 254 | 325 | – | – | – |
| GGAGCCGGCACUGAGGAUAUUCAUAUUAAAACAUGAGGAUCACCCAUGUAGGCCAGAAGGCCUUGGGAGAAGGCAGGUCGGCUCG [salish99_ss2_r3_075] (Eterna round: R96, puzzle: Same State 2) | – | – | – | 20 | 188 | 283 |
| GCUAGUAAAAUUGUCAACAUGAGGAUCACCCAUGUAUGUUGGCAGGAUAUCGUUUGCAAAGCAAACGAGAAGGGCUAAACUAGC [Mat - Same State NG 3 - JL Mod - D12] (Eterna round: R96, puzzle: Same State NG 3) | – | – | – | 58.2 | 186 | 171 |
| UGUUGUAUUACAGGAUAUCUAGUAUUUUCAUUUAGAGAAGGGUAUUCACAUGAGGAUCACCCAUGUAUAUACGAGGAAGUUGUG [JMF's solution 45] (Eterna round: R96, puzzle: Same State NG 1) | – | – | – | – | 34.7 | – |
| ACAUGAGACGCAGGAUAUCUUGUACCUACAUGUGACAUGAGGAUCACCCAUGUGGUAAGUAUGAUAGAGAAGGGCGAGAUAUGU [Equivalance 56 - Jieux - Same State NG 2] (Eterna round: R96, puzzle: Same State NG 2) | – | – | – | 19.7 | 31.6 | 58.9 |
| UCUAGACAUGAGGAUCACCCAUGUCAAUAUGACACAGGAUAUCGGUACUCAUAGAGUACGCGAGAAGGGUGACUUC [Same State 1 - Mod of Vinnie Gere v.4] (puzzle: Same State 1) | 137 | 45.5 | 52.6 | – | – | – |
| ACACAGCUGGGUGAGGAUAUCGGUGGUAAAACAUGAGGAUCACCCAUGUCCGAAGCUCGGACUUCCGAGAAGGCGCCCGGCUGCA [Areronanma] (puzzle: Same State 2) | 12.4 | 86.4 | 151 | – | – | – |
| AGUCCAGCCAGAGCUGGACAAAAGCAUGUACAUGAGGAUCACCCAUGUUCAUGUACAAGCUUUUUGCAAGUCAAAAU [Mat - hsa-mir-208a - Mod of JL - 83] (puzzle: Sensor for hsa-mir-208a) | 614 | 16.8 | 1110 | – | – | – |
| GCUAGAAUAAAUGCUAACAUGAGGAUCACCCAUGUAUGUUGGCAGGAUAUCGUUUGCAAAGCAAACGAGAAGGGCCAUACUAGC [Mat - Same State NG 3 - JL Mod - D26] (Eterna round: R96, puzzle: Same State NG 3) | – | – | – | 23.1 | 26.3 | 38.1 |
| UCUUGGUUUUUGCUCGUUUUUUGUGUUGAACAUGAGGAUCACCCAUGUAUUGUACGGUCCAAUUUAGUGGUAGUCCG [JMF 67] (puzzle: Sensor for hsa-mir-208a) | 38.4 | 25.3 | 38.7 | – | – | – |
| GGUCCCUACGCACAGGAUAUUCUUUUGGCAACAUGAGGAUCACCCAUGUGUGCCGAUCAUGGUUAGAAGAAGGGUGGUAGGGACC [Usisus] (puzzle: Same State 2) | 9.87 | 12.9 | 13.5 | – | – | – |
| GCCGCACAUGAGGAUCACCCAUGUAAUUACAUGGGAGGAUAUCAGUGCUCGAAAGAGCACUGAGAAGGCCUGAGGC [SS1 - Omei A v1] (puzzle: Same State 1) | 296 | 32.2 | 28.8 | – | – | – |
| GUUAGGAAUCUAGCACACAUGAGGAUCACCCAUGUUAGUGGGAAGGAUAUGGUACAGAAACUGUACCAGAAGGUCUUAUUGUUU [Omei SS(NG) 3 AV14] (Eterna round: R96, puzzle: Same State NG 3) | – | – | – | 93.8 | 67.6 | 142 |
